# B1: CDC25A (parent)
# chain: QLIDPDENKENEAFEFKKPVRPVS
# Variants of: B1
# Assay: protein stability index of a GFP-peptide fusion (GPS, HEK-293T) (PSI 1-6); higher = more stable
# Settings: c terminus: a fixed tail appended
# 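Also: lentivirally expressed fusions sorted by FACS into six bins by GFP to DsRed ratio, PSI derived from sequencing read proportions per bin multiplied by bin number.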
row,Variant,protein stability index
1,QLIDPDESKENEAFEFKKPVRPVS,4.05
2,QLIDPDEMKENEAFEFKKPVRPVS,4.09
3,QLIDPDELKENEAFEFKKPVRPVS,4.52
4,QLIDPDEQKENEAFEFKKPVRPVS,4.95
5,QLIDPDEHKENEAFEFKKPVRPVS,4.59
6,QLIDPDECKENEAFEFKKPVRPVS,4.45
7,QLIDPDEEKENEAFEFKKPVRPVS,3.95
8,QLIDPDEDKENEAFEFKKPVRPVS,4.28
9,QLIDPDEIKENEAFEFKKPVRPVS,4.7
10,QLIDPDEFKENEAFEFKKPVRPVS,4.08
11,QLIDPDERKENEAFEFKKPVRPVS,4.86
12,QLIDPDEKKENEAFEFKKPVRPVS,4.5
13,QLIDPDEGKENEAFEFKKPVRPVS,5.06
14,QLIDPDEPKENEAFEFKKPVRPVS,4.28
15,QLIDPDEVKENEAFEFKKPVRPVS,4.94
16,QLIDPDETKENEAFEFKKPVRPVS,4.61
17,QLIDPDEYKENEAFEFKKPVRPVS,3.59
18,QLIDPDEAKENEAFEFKKPVRPVS,4.31
19,QLIDPDENKQNEAFEFKKPVRPVS,4.29
20,QLIDPDENKVNEAFEFKKPVRPVS,3.36
21,QLIDPDENKSNEAFEFKKPVRPVS,4.2
22,QLIDPDENKTNEAFEFKKPVRPVS,4.3
23,QLIDPDENKGNEAFEFKKPVRPVS,4.33
24,QLIDPDENKCNEAFEFKKPVRPVS,3.84

row,Variant,protein stability index
1,QLIDPDENKFNEAFEFKKPVRPVS,3.12
2,QLIDPDENKANEAFEFKKPVRPVS,4.25
3,QLIDPDENKNNEAFEFKKPVRPVS,3.78
4,QLIDPDENKKNEAFEFKKPVRPVS,4.35
5,QLIDPDENKLNEAFEFKKPVRPVS,3.97
6,QLIDPDENKRNEAFEFKKPVRPVS,4.43
7,QLIDPDENKDNEAFEFKKPVRPVS,3.98
8,QLIDPDENKWNEAFEFKKPVRPVS,4.02
9,QLIDPDENKINEAFEFKKPVRPVS,4.13
10,QLIDPDENKYNEAFEFKKPVRPVS,4.78
11,QLIDPDENKPNEAFEFKKPVRPVS,3.1
12,QLIDPDENKMNEAFEFKKPVRPVS,3.71
13,QLIDPDENKENNAFEFKKPVRPVS,3.27
14,QLIDPDENKENIAFEFKKPVRPVS,3.34
15,QLIDPDENKENHAFEFKKPVRPVS,3.21
16,QLIDPDENKENKAFEFKKPVRPVS,3.84
17,QLIDPDENKENFAFEFKKPVRPVS,2.87
18,QLIDPDENKENVAFEFKKPVRPVS,3.36
19,QLIDPDENKENMAFEFKKPVRPVS,2.78
20,QLIDPDENKENQAFEFKKPVRPVS,3.85
21,QLIDPDENKENPAFEFKKPVRPVS,4.17
22,QLIDPDENKENWAFEFKKPVRPVS,3.19
23,QLIDPDENKENLAFEFKKPVRPVS,3.56
24,QLIDPDENKENSAFEFKKPVRPVS,4.16

row,Variant,protein stability index
1,QLIDPDENKENGAFEFKKPVRPVS,4.61
2,QLIDPDENKENYAFEFKKPVRPVS,3.38
3,QLIDPDENKENAAFEFKKPVRPVS,3.34
4,QLIDPDENKENRAFEFKKPVRPVS,3.1
5,QLIDPDENKENTAFEFKKPVRPVS,3.94
6,QLIDPDENKENCAFEFKKPVRPVS,3.55
7,QLIDPYENKENEAFEFKKPVRPVS,4.02
8,QLIDPVENKENEAFEFKKPVRPVS,3.83
9,QLIDPHENKENEAFEFKKPVRPVS,3.94
10,QLIDPLENKENEAFEFKKPVRPVS,3.23
11,QLIDPEENKENEAFEFKKPVRPVS,3.88
12,QLIDPSENKENEAFEFKKPVRPVS,3.74
13,QLIDPQENKENEAFEFKKPVRPVS,4.6
14,QLIDPRENKENEAFEFKKPVRPVS,3.58
15,QLIDPIENKENEAFEFKKPVRPVS,4.22
16,QLIDPTENKENEAFEFKKPVRPVS,3.87
17,QLIDPAENKENEAFEFKKPVRPVS,3.75
18,QLIDPNENKENEAFEFKKPVRPVS,4.4
19,QLIDPGENKENEAFEFKKPVRPVS,3.64
20,QLIDPFENKENEAFEFKKPVRPVS,3.88
21,QLIDPCENKENEAFEFKKPVRPVS,4.51
22,QLIDPKENKENEAFEFKKPVRPVS,3.87
23,QLIDPPENKENEAFEFKKPVRPVS,4.53
24,QLIDPMENKENEAFEFKKPVRPVS,4.14

row,Variant,protein stability index
1,QLIDPWENKENEAFEFKKPVRPVS,3.59
2,QLIDPDENKENEAMEFKKPVRPVS,3.8
3,QLIDPDENKENEAHEFKKPVRPVS,4.42
4,QLIDPDENKENEACEFKKPVRPVS,4.55
5,QLIDPDENKENEAPEFKKPVRPVS,4.92
6,QLIDPDENKENEATEFKKPVRPVS,3.73
7,QLIDPDENKENEAIEFKKPVRPVS,4.04
8,QLIDPDENKENEAGEFKKPVRPVS,4.53
9,QLIDPDENKENEAQEFKKPVRPVS,3.94
10,QLIDPDENKENEAVEFKKPVRPVS,4.55
11,QLIDPDENKENEAKEFKKPVRPVS,5
12,QLIDPDENKENEAREFKKPVRPVS,3.79
13,QLIDPDENKENEAAEFKKPVRPVS,4.68
14,QLIDPDENKENEASEFKKPVRPVS,4.5
15,QLIDPDENKENEALEFKKPVRPVS,4.21
16,QLIDPDENKENEANEFKKPVRPVS,3.98
17,QLIDPDENKENEADEFKKPVRPVS,5.04
18,QLIDPDENKENEAEEFKKPVRPVS,4.78
19,QLIVPDENKENEAFEFKKPVRPVS,3.44
20,QLITPDENKENEAFEFKKPVRPVS,3.65
21,QLIWPDENKENEAFEFKKPVRPVS,3.45
22,QLIRPDENKENEAFEFKKPVRPVS,3.3
23,QLIYPDENKENEAFEFKKPVRPVS,3.84
24,QLIMPDENKENEAFEFKKPVRPVS,3.94

row,Variant,protein stability index
1,QLISPDENKENEAFEFKKPVRPVS,3.58
2,QLINPDENKENEAFEFKKPVRPVS,3.2
3,QLIDPDENDENEAFEFKKPVRPVS,4.97
4,QLIDPDENIENEAFEFKKPVRPVS,3.89
5,QLIDPDENNENEAFEFKKPVRPVS,4.65
6,QLIDPDENMENEAFEFKKPVRPVS,4.09
7,QLIDPDENFENEAFEFKKPVRPVS,4.04
8,QLIDPDENHENEAFEFKKPVRPVS,4.18
9,QLIDPDENCENEAFEFKKPVRPVS,4.54
10,QLIDPDENVENEAFEFKKPVRPVS,4.83
11,QLIDPDENYENEAFEFKKPVRPVS,5.01
12,QLIDPDENLENEAFEFKKPVRPVS,3.51
13,QLIDPDENEENEAFEFKKPVRPVS,4.62
14,QLIDPDENTENEAFEFKKPVRPVS,4
15,QLIDPDENGENEAFEFKKPVRPVS,4.2
16,QLIDPDENSENEAFEFKKPVRPVS,4.39
17,QLIDPDENRENEAFEFKKPVRPVS,4.21
18,QLIDPDENPENEAFEFKKPVRPVS,4.62
19,QLIDPDENAENEAFEFKKPVRPVS,4.37
20,QLIDPDENWENEAFEFKKPVRPVS,3.82
21,QLIDPDENQENEAFEFKKPVRPVS,4.74
22,QLIDWDENKENEAFEFKKPVRPVS,3.51
23,QLIDKDENKENEAFEFKKPVRPVS,3.95
24,QLIDMDENKENEAFEFKKPVRPVS,3.88

row,Variant,protein stability index
1,QLIDGDENKENEAFEFKKPVRPVS,3.9
2,QLIDCDENKENEAFEFKKPVRPVS,4.12
3,QLIDQDENKENEAFEFKKPVRPVS,3.87
4,QLIDVDENKENEAFEFKKPVRPVS,3.74
5,QLIDDDENKENEAFEFKKPVRPVS,3.92
6,QLIDHDENKENEAFEFKKPVRPVS,3.61
7,QLIDTDENKENEAFEFKKPVRPVS,3.61
8,QLIDSDENKENEAFEFKKPVRPVS,3.25
9,QLIDIDENKENEAFEFKKPVRPVS,3.07
10,QLIDADENKENEAFEFKKPVRPVS,3.99
11,QLIDYDENKENEAFEFKKPVRPVS,2.85
12,QLIDNDENKENEAFEFKKPVRPVS,4.06
13,QLIDFDENKENEAFEFKKPVRPVS,2.88
14,QLIDRDENKENEAFEFKKPVRPVS,3.66
15,QLIDPDHNKENEAFEFKKPVRPVS,3.94
16,QLIDPDLNKENEAFEFKKPVRPVS,3.33
17,QLIDPDYNKENEAFEFKKPVRPVS,3.45
18,QLIDPDSNKENEAFEFKKPVRPVS,3.37
19,QLIDPDWNKENEAFEFKKPVRPVS,3.3
20,QLIDPDMNKENEAFEFKKPVRPVS,3.95
21,QLIDPDFNKENEAFEFKKPVRPVS,3.63
22,QLIDPDGNKENEAFEFKKPVRPVS,3.02
23,QLIDPDQNKENEAFEFKKPVRPVS,3.58
24,QLIDPDCNKENEAFEFKKPVRPVS,4

row,Variant,protein stability index
1,QLIDPDVNKENEAFEFKKPVRPVS,4.11
2,QLIDPDKNKENEAFEFKKPVRPVS,4.59
3,QLIDPDINKENEAFEFKKPVRPVS,4.06
4,QLIDPDNNKENEAFEFKKPVRPVS,3.42
5,QLIDPDPNKENEAFEFKKPVRPVS,4.68
6,QLIDPDANKENEAFEFKKPVRPVS,4.25
7,QLIDPDTNKENEAFEFKKPVRPVS,4.15
8,QLIDPDDNKENEAFEFKKPVRPVS,3.97
9,QLIDPDRNKENEAFEFKKPVRPVS,3.92
10,QLIDPDENKEVEAFEFKKPVRPVS,4.63
11,QLIDPDENKEQEAFEFKKPVRPVS,4.32
12,QLIDPDENKEEEAFEFKKPVRPVS,4.22
13,QLIDPDENKEIEAFEFKKPVRPVS,4.53
14,QLIDPDENKEMEAFEFKKPVRPVS,4.25
15,QLIDPDENKELEAFEFKKPVRPVS,4.65
16,QLIDPDENKEDEAFEFKKPVRPVS,4.68
17,QLIDPDENKEFEAFEFKKPVRPVS,4.02
18,QLIDPDENKEPEAFEFKKPVRPVS,4.49
19,QLIDPDENKECEAFEFKKPVRPVS,4.23
20,QLIDPDENKEKEAFEFKKPVRPVS,4.56
21,QLIDPDENKEAEAFEFKKPVRPVS,3.81
22,QLIDPDENKETEAFEFKKPVRPVS,4.99
23,QLIDPDENKEWEAFEFKKPVRPVS,4.02
24,QLIDPDENKESEAFEFKKPVRPVS,4.22

row,Variant,protein stability index
1,QLIDPDENKEYEAFEFKKPVRPVS,4.29
2,QLIDPDENKENECFEFKKPVRPVS,3.52
3,QLIDPDENKENEVFEFKKPVRPVS,2.88
4,QLIDPDENKENENFEFKKPVRPVS,3.77
5,QLIDPDENKENEMFEFKKPVRPVS,4.11
6,QLIDPDENKENEEFEFKKPVRPVS,3.57
7,QLIDPDENKENEPFEFKKPVRPVS,4.25
8,QLIDPDENKENEIFEFKKPVRPVS,4.23
9,QLIDPDENKENEHFEFKKPVRPVS,3.26
10,QLIDPDENKENELFEFKKPVRPVS,3.73
11,QLIDPDENKENEGFEFKKPVRPVS,3.71
12,QLIDPDENKENESFEFKKPVRPVS,3.85
13,QLIDPDENKENEWFEFKKPVRPVS,3.02
14,QLIDPDENKENETFEFKKPVRPVS,3.9
15,QLIDPDENKENEKFEFKKPVRPVS,3.63
16,QLIDPDENKENEDFEFKKPVRPVS,4.34
17,QLIDPDENKENEFFEFKKPVRPVS,3.02
18,QLIDPDENKENEQFEFKKPVRPVS,4.02
19,QLIDPDENKENERFEFKKPVRPVS,3.24
20,QLIDPDENKENEYFEFKKPVRPVS,3.99

# — the supplement of paper PMC10567573
